Blank lines part the entries; values can stand above or below the molecule they belong to.
Columns and labels:
[1] = biological target: T1, exosomes presenting TMEM-180 from DLD-1 cell line (Homo sapiens, UniProt Q14CX5); experiment: Detection of TMEM-180 exosomes in culture supernatant (immobilized anti-TMEM-180 antibody, anti-CD9 detection); assay type: binding; settings: immobilized antibody 5 μg/mL; detection with anti-CD9 antibody; FIG. 18
T1 construct: endogenous in cells; host or cells: DLD-1 colon cancer cell line (parent / wild type); culture supernatant exosomes in A20
T1 sequence (Q14CX5 1-517): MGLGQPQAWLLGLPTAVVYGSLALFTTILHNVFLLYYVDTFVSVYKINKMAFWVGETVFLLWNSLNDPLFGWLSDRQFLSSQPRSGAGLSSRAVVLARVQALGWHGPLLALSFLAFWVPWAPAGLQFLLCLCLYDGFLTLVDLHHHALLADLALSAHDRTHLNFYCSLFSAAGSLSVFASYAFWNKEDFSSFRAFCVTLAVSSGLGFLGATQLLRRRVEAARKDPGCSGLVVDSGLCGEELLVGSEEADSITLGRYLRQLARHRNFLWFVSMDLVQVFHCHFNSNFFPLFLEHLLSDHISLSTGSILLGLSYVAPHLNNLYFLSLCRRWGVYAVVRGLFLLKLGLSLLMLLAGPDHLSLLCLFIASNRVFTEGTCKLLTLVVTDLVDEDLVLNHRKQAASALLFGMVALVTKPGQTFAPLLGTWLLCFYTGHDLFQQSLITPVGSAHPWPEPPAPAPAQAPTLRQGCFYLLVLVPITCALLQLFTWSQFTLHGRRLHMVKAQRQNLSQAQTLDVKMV
From the text: Thus, the inventors constructed a system for detecting exosomes in the culture supernatant. In this system, an anti-TMEM-180 antibody was immobilized on the surface of the plate, and exosomes containing TMEM-180 which were bound to the immobilized antibody were detected with an anti-CD9 antibody which CD9 is an exosome maker. The DLD-1 cell line (also referred to as “wild type DLD-1 cell line”) was used as cells. The TMEM-180 knockdown DLD-1 cell line and K562 cell line were used as negative controls.
Specifically, an anti-TMEM-180 antibody was diluted with phosphate buffer such that the concentration will be 5 μg/mL, and then added to a 96 well plate (Maxisorp #442404, Thermo Fisher co., Ltd.) at 50 μL/well. The immobilization reaction was performed by incubation for 2 hours at room temperature or for overnight at 4° C. The plate after the immobilization was washed three times with 300 μL/well of a plate washing solution. The plate was blocked with 200 μL/well of a blocking agent (1% BSA/TBS-T), and allowed to stand for 1 hour at room temperature or for overnight at 4° C. […] Then, the optical density at 450 nm was measured with a plate reader.

[2] = tested on: normal tissues (skin, brain, small intestine, liver, heart, lung, kidney); experiment: Immune histochemistry of normal human tissues; assay type: binding
Method: The paraffin sections were prepared from the tissue specimens in the same way as shown in Example 6 according to a routine procedure. The prepared sections were subjected to reactions with 1 μg/mL of one of the above antibodies. An HRP-labelled anti rat antibody was used as a secondary antibody, which emitted light with DAB. The observation was performed after hematoxylin staining.

[3] = tested on: cell lines derived from cancers (ATCC and JCRB); experiment: Reactivity of antibodies to cancer-derived cell lines by FACS (Table 23); assay type: binding
[4] = tested on: cell lines derived from cancers (ATCC and JCRB); experiment: as above; assay type: binding; remark: listed apart in the source
Method: Cancer cells targeted for measurement were cultured in medium and then added to a V-bottom 96-well plate (Corning Incorporated) to a concentration of 1×10^5 cells/well. The plate was centrifuged for 3 minutes at 440×g and 4° C. followed by removing the supernatant, adding antibody-producing hybridoma culture supernatant or antibody solution to the cell pellet at 50 μL/well and suspending therein. After allowing to react for 45 minutes on ice, the plate was washed three times with a mixture of 0.1% BSA, 2 mM EDTA and PBS at 200 μL/well. The supernatant was removed and secondary antibody was added to the cell pellet at 50 μL/well followed by suspending the cells therein. ALEXAFLUOR 647@ (fluorescent compound) goat anti-rat IgG (H-L) (Life Technologies Corporation) was used for the secondary antibody after diluting 400-fold with a mixture of 0.1% BSA, 2 mM EDTA and PBS. After allowing to react for 45 minutes on ice, the plate was washed three times with a mixture of 0.1% BSA, 2 mM EDTA and PBS at 200 μL/well. After removing the supernatant, 50 ng/mL of propidium iodide, 0.1% BSA, 2 mM EDTA and PBS were added to the cell pellet at 250 µL/well followed by suspending therein. The cells stained in this manner were measured using a flow cytometer such as the Guava easyCyte 8HT (Merck Millipore Corporation) followed by analysis of the resulting data using FlowJO (Tomy Digital Biology Co., Ltd.). FACS analysis was carried out using colon cancer, brain tumor and hematologic cancer.
Cancer-detection rates were tested using monoclonal antibodies (the 669 antibody, 1052 antibody, 1105 antibody, and 1361 antibody).
In this Example, the reactivity of the antibodies to the cell lines derived from cancers which were obtained from ATCC and JCRB was analyzed by FACS.

[5] = tested on: Wildtype DLD-1 cells; experiment: Internalization of the antibody; assay type: cell-based, human; settings: 488-labelled antibody; 37° C.; 1, 3 or 6 hours; FIG. 25
Method: Wildtype DLD-1 cells were plated on a 96-well plate at 5,000 cells/well. The plate was incubated at 37° C. for 18 hours. After washing, a 488-labelled 669 antibody was added to the wells at 2 μL/well and was incubated at 37° C. for certain hours (1 hour, 3 hours, or 6 hours). After the wells were washed three times, a rabbit anti 488 antibody was added at 2 μL/well to stand still at 4° C. for 30 minutes to quench the fluorescence derived from the antibodies binding to the cell surface. After the wells were washed three times, 4% PFA was added at 100 μL/well to stand still at room temperature for 10 minutes. After the wells were washed three times, DAPI (1/500 dilution) was added to the wells at 100 μL/well to stand still at room temperature for 5 minutes. After the wells were washed three times, the wells were subjected to photographing or Array Scan analysis.

[6] = tested on: normal stroma; experiment: Reactivity to normal stroma; assay type: binding; settings: compared with the 1361 antibody

- detection of exosomes presenting TMEM-180 in DLD-1 culture supernatant [1]: successfully detected
B1: clone 1361: rat IgG anti-TMEM-180 monoclonal antibody; variable regions SEQ ID NOs: 70 and 71 (antibody, V domains shown)
VH: MDIRLSLVFLVLFIKGVQCEVQLVESGGGLVQPGRSLKLSCVASGFTFNNYWMTWIRQAPGKGLEWVASITNTGGSTYYPDSVKGRFTISRDYAKSTLYLQMNSLRSEDTATYYCTRAGYSSYPDYFDYWGQGVMLTVSS
VL: MMAPVQLLGLLLLWLPAMRCNIQMTQSPSLLSASVGDRVTLSCKAGQNIYNYLAWYQQKLGEAPKLLIYNANSLQTGIPSRFSGSGSGTDFTLTISSLQPEDVATYFCQQYSSGWTFGGGTKLELK
- staining of normal tissues from skin, brain, small intestine, liver, heart, lung and kidney ([2]; 1 μg/mL, paraffin sections): negative
- reactivity to normal skin tissues ([2]; FIG. 13): low reactivity
- Detection Sensitivity of Cancers, P/N ([3]; Cancer Type: Bladder): (3/4)
- Detection Sensitivity of Cancers, Percentage (%) ([3]; Cancer Type: Bladder): 75%
- Detection Sensitivity of Cancers, Percentage (%) ([3]; Cancer Type: Brain): 100%
- Detection Sensitivity of Cancers, P/N ([3]; Cancer Type: Brest): (2/6)
- Detection Sensitivity of Cancers, Percentage (%) ([3]; Cancer Type: Brest): 33%
- Detection Sensitivity of Cancers, P/N ([3]; Cancer Type: Gastric): (5/8)
- Detection Sensitivity of Cancers, Percentage (%) ([3]; Cancer Type: Gastric): 63%
- Detection Sensitivity of Cancers, P/N ([3]; Cancer Type: Kidney): (3/3)
- Detection Sensitivity of Cancers, Percentage (%) ([3]; Cancer Type: Kidney): 100%
- Detection Sensitivity of Cancers, P/N ([3]; Cancer Type: Pancreas): (9/9)
- Detection Sensitivity of Cancers, Percentage (%) ([3]; Cancer Type: Pancreas): 100%
- Detection Sensitivity of Cancers, P/N ([3]; Cancer Type: Prostate): (2/3)
- Detection Sensitivity of Cancers, Percentage (%) ([3]; Cancer Type: Prostate): 67%
- Detection Sensitivity of Cancers, P/N ([4]; Cancer Type: Brain): (7/7)
- Detection Sensitivity of Cancers, P/N ([4]; Cancer Type: Colon): (7/10)
- Detection Sensitivity of Cancers, Percentage (%) ([4]; Cancer Type: Colon): 70%
- recognition of cancers, summary of Table 23 ([4]; comparison of 1361, 669, 1052, 1105): highest sensitivity

- detection of exosomes presenting TMEM-180 in DLD-1 culture supernatant [1]: successfully detected
B2: clone 669: rat IgM anti-TMEM-180 monoclonal antibody; variable regions SEQ ID NOs: 78 and 79 (antibody, V domains shown)
VH: MGWICIIFLVATATGVHSQVKLLQSGAALVKPGASVKMSCKASGYTFTDYWVSWVKQSHGKSLEWIGEIYPNSGATNFNENFKGKATLTVDKSTSTAYMELSRLTSEDSAIYYCTRDGTMGIAYYFDYWGQGVMVTVSS
VL: MMAAVQLLGLLLLWVPAMRCDIQMTQSPSFLSASVGDRVTINCKASQNINRYLNWYQQKLGEAPKLLIYNANSLQTGIPSRFSGSGSGTDFTLTISSLQPEDVATYFCLQHNSWPYTFGAGTKLELK
- internalization into cells [5]: concentrated at a high concentration in the cells
- Detection Sensitivity of Cancers, P/N ([3]; Cancer Type: Pancreas): (3/9)
- Detection Sensitivity of Cancers, Percentage (%) ([3]; Cancer Type: Pancreas): 33%
- Detection Sensitivity of Cancers, P/N ([4]; Cancer Type: Colon): (3/10)
- Detection Sensitivity of Cancers, Percentage (%) ([4]; Cancer Type: Colon): 30%

B3: 1361-7 clone: variant having an amino acid substitution S82A in the 1361 antibody (antibody, V domains shown)
VH: EVQLVESGGGLVQPGRSLKLSCVASGFTFNNYWMTWIRQAPGKGLEWVASITNTGGSTYYPDAVKGRFTISRDYAKSTLYLQMNSLRSEDTATYYCTRAGYSSYPDYFDYWGQGVMLTVSS
VL: NIQMTQSPSLLSASVGDRVTLSCKAGQNIYNYLAWYQQKLGEAPKLLIYNANSLQTGIPSRFSGSGSGTDFTLTISSLQPEDVATYFCQQYSSGWTFGGGTKLELK
- reactivity to normal stroma [6]: almost the same as that of the 1361 antibody

Source: US11633499B2, “Anti-TMEM-180 antibody, anticancer drug and cancer testing method” (NATIONAL CANCER CENTER JAPAN, priority 2016, dated 2023)
